Assay results reported in patent publication US20200199241A1 (Chugai, published 2020).
Positions count from the first letter of the chain named.

T1: FcγRIIa type R (human, UniProt P12318 36-217)
T1 construct: also called FcγRIIaR; FcγRIIa(R)
T1 chain: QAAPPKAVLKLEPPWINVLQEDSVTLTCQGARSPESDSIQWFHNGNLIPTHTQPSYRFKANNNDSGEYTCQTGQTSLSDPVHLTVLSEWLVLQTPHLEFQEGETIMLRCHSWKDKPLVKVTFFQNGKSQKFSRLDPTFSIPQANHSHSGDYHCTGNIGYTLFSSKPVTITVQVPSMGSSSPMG

T2: FcγRIIa type H (human, UniProt P12318 36-217)
T2 construct: also called FcγRIIaH; FcγRIIa(H)
T2 sequence: T1 chain with R133H

T3: FcγRIIb (human, UniProt P31994 43-217, limits assumed)
T3 construct: also called FcγIIB; CD32
T3 sequence: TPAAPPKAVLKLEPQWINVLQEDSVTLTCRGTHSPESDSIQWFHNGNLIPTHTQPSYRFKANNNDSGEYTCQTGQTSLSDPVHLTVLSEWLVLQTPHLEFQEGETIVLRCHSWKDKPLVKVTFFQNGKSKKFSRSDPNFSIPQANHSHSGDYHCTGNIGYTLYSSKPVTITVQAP

B1: IL6R-BP183/IL6R-L (antibody, human IgG1)
heavy: QVQLQESGPGLVKPSETLSLTCAVSGHSISHDHAWSWVRQPPGEGLEWIGFISYSGITNYNPSLQGRVTISRDNSKNTLYLQMNSLRAEDTAVYYCARSLARTTAMDYWGEGTLVTVSSASTKGPSVFPLAPSSKSTSGGTAALGCLVKDYFPEPVTVSWNSGALTSGVHTFPAVLQSSGLYSLSSVVTVPSSSLGTQTYICNVNHKPSNTKVDKKVEPKSCDKTHTCPPCPAPDYLGGDSVFLFPPKPKDTLMISRTPEVTCVVVDVSHEDGEVKFNWYVDGVEVHNAKTKPREEQYNSTYRVVSVLTVLHQDWLNGKEYKCKVSNAALPKPIEKTISKAKGQPREPQVYTLPPSRDELTKNQVSLTCLVKGFYPSDIAVEWESNGQPENNYKTTPPVLDSDGSFFLYSKLTVDKSRWQQGNVFSCSVMHEALHNHYTQESLSLSP
light: DIQMTQSPSSLSASVGDRVTITCRASQDISSYLNWYQQKPGKAPKLLIYYTSRLHSGVPSRFSGSGSGTDFTFTISSLQPEDIATYYCQQGNTLPYTFGQGTKVEIK
notes: Anti-IL-6R human IgG1 variant; copies: 2 + 2
B2: IL6R-BP213/IL6R-L (antibody, human IgG1)
heavy: B1 heavy with Y236L, H270D, A328K, K332R
light: B1 light
notes: as for B1
B3: IL6R-BP186/IL6R-L (antibody, human IgG1)
heavy: B1 heavy with G239D, Y298D
light: B1 light
notes: as for B1
B4: IL6R-BP197/IL6R-L (antibody, human IgG1)
heavy: B1 heavy with G239D, H270D, Y298D, A328D
light: B1 light
notes: as for B1
B5: IL6R-BP196/IL6R-L (antibody, human IgG1)
heavy: B1 heavy with D235E, H270D
light: B1 light
notes: as for B1
B6: IL6R-BP206/IL6R-L (antibody, human IgG1)
heavy: B1 heavy with Y236L, A328K, K332R
light: B1 light
notes: as for B1
B7: IL6R-BP208/IL6R-L (antibody, human IgG1)
heavy: B1 heavy with Y236L, G239D, H270D, A328K, K332R
light: B1 light
notes: as for B1
B8: IL6R-BP188/IL6R-L (antibody, human IgG1)
heavy: B1 heavy with Y236L, G239D, H270D, A328K
light: B1 light
notes: as for B1
B9: IL6R-BP195/IL6R-L (antibody, human IgG1)
heavy: B1 heavy with G239D, H270D, Y298D
light: B1 light
notes: as for B1
B10: IL6R-BP187/IL6R-L (antibody, human IgG1)
heavy: B1 heavy with D235E
light: B1 light
notes: as for B1
B11: IL6R-BP203/IL6R-L (antibody, human IgG1)
heavy: B1 heavy with D235E, Y236L, G239D, A328K, K332R
light: B1 light
notes: as for B1
B12: IL6R-BP190/IL6R-L (antibody, human IgG1)
heavy: B1 heavy with D235E, Y236L, G239D, H270D, A328K
light: B1 light
notes: as for B1
B13: IL6R-BP211/IL6R-L (antibody, human IgG1)
heavy: B1 heavy with Y236L, H270D, K332R
light: B1 light
notes: as for B1
B14: IL6R-BP184/IL6R-L (antibody, human IgG1)
heavy: B1 heavy with Y236L, A328K
light: B1 light
notes: as for B1
B15: IL6R-BP189/IL6R-L (antibody, human IgG1)
heavy: B1 heavy with D235E, Y236L, G239D, H270D
light: B1 light
notes: as for B1
B16: IL6R-BP194/IL6R-L (antibody, human IgG1)
heavy: B1 heavy with G239D, H270D
light: B1 light
notes: as for B1
B17: IL6R-BP209/IL6R-L (antibody, human IgG1)
heavy: B1 heavy with D235E, Y236L, G239D, H270D, K332R
light: B1 light
notes: as for B1

target: T4, FcγRIa (human, UniProt P12314 16-292, limits assumed); experiment: SPR (Biacore), method of Example 14
T4 construct: also called CD64
T4 sequence (P12314 16-292 limits assumed): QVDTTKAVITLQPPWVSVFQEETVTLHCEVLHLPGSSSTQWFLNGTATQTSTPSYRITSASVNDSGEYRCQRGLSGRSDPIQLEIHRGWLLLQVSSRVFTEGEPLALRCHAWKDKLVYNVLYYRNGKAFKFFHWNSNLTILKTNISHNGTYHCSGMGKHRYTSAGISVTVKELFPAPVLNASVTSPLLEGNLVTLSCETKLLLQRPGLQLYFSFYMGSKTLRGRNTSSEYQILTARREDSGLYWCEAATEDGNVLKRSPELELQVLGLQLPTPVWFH
Source text: (§1) Furthermore, KD(IIaR)/KD(IIb) and KD(IIaH)/KD(IIb) in the table respectively represent the value obtained by dividing the KD value of each variant for FcγRIIaR by the KD value of each variant for FcγRIIb, and the value obtained by dividing the KD value of each variant for FcγRIIaH by the KD value of each variant for FcγRIIb. KD(IIb) of the parent polypeptide/KD(IIb) of the altered polypeptide refers to the value obtained by dividing the KD value of the parent polypeptide for FcγRIIb by the KD value of each variant for FcγRIIb.

Kd [nM] | Binder
17 | B1
4.1 | B2
45 | B3
19 | B4
14 | B5
8.2 | B6
19 | B7
21 | B8
23 | B9
25 | B10
180 | B11
63 | B12
4.2 | B13
11 | B14
42 | B15
24 | B16
39 | B17

Target: T1, FcγRIIa type R
Experiment: SPR (Biacore), method of Example 14
Source text: as §1

Kd [nM] | Binder
2600 | B1
3100 | B2
960 | B3
980 | B4
3000 | B5
3100 | B6
850 | B7
1000 | B8
910 | B9
2800 | B10
990 | B11
1100 | B12
4100 | B13
2300 | B14
1400 | B15
820 | B16
1200 | B17

target: T2, FcγRIIa type H; experiment: SPR (Biacore), method of Example 14
Source text: as §1

Kd [nM] | Binder
15000 | B1
24000 | B2
9300 | B3
12000 | B4
19000 | B5
24000 | B6
83000 | B7
16000 | B8
10000 | B9
18000 | B10
11000 | B11
17000 | B12
27000 | B13
30000 | B14
21000 | B15
8500 | B16
10000 | B17

target: T3, FcγRIIb; experiment: SPR (Biacore), method of Example 14
Source text: as §1

Kd [nM] | Binder
240 | B1
180 | B2
61 | B3
58 | B4
220 | B5
200 | B6
32 | B7
46 | B8
50 | B9
290 | B10
49 | B11
58 | B12
220 | B13
130 | B14
74 | B15
52 | B16
51 | B17

target: T5, FcγRIIIa type V (human, UniProt P08637 17-208, limits assumed); experiment: SPR (Biacore), method of Example 14
T5 construct: also called FcγRIIIaV; FcγRIIIa(V)
T5 sequence (P08637 17-208 F176V limits assumed): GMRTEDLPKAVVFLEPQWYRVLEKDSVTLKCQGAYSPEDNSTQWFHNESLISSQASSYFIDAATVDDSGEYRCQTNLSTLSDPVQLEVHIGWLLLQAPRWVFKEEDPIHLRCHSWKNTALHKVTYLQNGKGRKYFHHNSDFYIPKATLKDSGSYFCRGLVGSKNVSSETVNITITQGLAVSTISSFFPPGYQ
Source text: as §1

Kd [nM] | Binder
56000 | B1
63000 | B2
49000 | B3
33000 | B4
51000 | B5
69000 | B6
53000 | B7
58000 | B8
31000 | B9
56000 | B10
72000 | B11
45000 | B12
73000 | B13
66000 | B14
49000 | B15
27000 | B16
41000 | B17

target: T3, FcγRIIb; experiment: ratio of SPR KD values, parent IL6R-B3/IL6R-L
Source text: as §1

KD(IIb) of the parent polypeptide/KD(IIb) of altered polypeptide [fold] | Binder
12.9 | B1
17.6 | B2
50.7 | B3
53.7 | B4
13.9 | B5
15.8 | B6
95.4 | B7
67.6 | B8
62 | B9
10.7 | B10
63.7 | B11
53.2 | B12
13.8 | B13
24.5 | B14
41.8 | B15
59.4 | B16
60.4 | B17

target: T3, FcγRIIb; experiment: SPR (Biacore); KD for FcγRIIaH divided by KD for FcγRIIb of the same antibody; column head in Table 52-1
Source text: as §1

KD(IIaH)/KD(IIb) | Binder
62.5 | B1
136 | B2
152 | B3
209 | B4
85.2 | B5
123 | B6
256 | B7
350 | B8
201 | B9
62.3 | B10
227 | B11
293 | B12
120 | B13
238 | B14
284 | B15
164 | B16
195 | B17

target: T3, FcγRIIb; experiment: SPR (Biacore); KD for FcγRIIaR divided by KD for FcγRIIb of the same antibody; column head in Table 52-1
Source text: as §1

KD(IIaR)/KD(IIb) | Binder
10.7 | B1
17.7 | B2
15.8 | B3
17.1 | B4
13.4 | B5
16.1 | B6
26.3 | B7
21.9 | B8
18.2 | B9
9.7 | B10
20.5 | B11
12.3 | B12
18.5 | B13
18.2 | B14
18.5 | B15
15.8 | B16
22.7 | B17
